The target in data set [1] is T1, YY1 C-terminal region (zinc fingers) (Mus musculus, UniProt Q00899 Q00899:271-414). The experiment in a line: EMSA; zinc-finger region binds DNA. The following applies: label: 32P. On the procedure: (§1) Sizes of N-terminal and C-terminal regions of YY1 are drawn to scale. […] 5 nM of radioactively labeled 30-bp DNA probe derived from the promoter region of Arid1a gene containing a consensus YY1 binding motif was incubated with increasing concentrations of full-length recombinant murine YY1 protein (FL), the N-terminal portion of YY1 (N-term) lacking the zinc-fingers or the C-terminal portion (C-term) containing the zinc fingers. […] The arrows indicate free probe and probe bound by YY1. […] 5 nM of radioactively labeled 30-nt RNA probe derived from the promoter region of Arid1a gene was incubated with increasing concentrations of full-length recombinant murine YY1 protein (FL), the N-terminal portion of YY1 (N-term) lacking the zinc-fingers or the C-terminal portion (C-term) containing the zinc fingers. […] The arrows indicate free probe and probe bound by YY1;
T1 sequence (Q00899 271-414, one chain of several): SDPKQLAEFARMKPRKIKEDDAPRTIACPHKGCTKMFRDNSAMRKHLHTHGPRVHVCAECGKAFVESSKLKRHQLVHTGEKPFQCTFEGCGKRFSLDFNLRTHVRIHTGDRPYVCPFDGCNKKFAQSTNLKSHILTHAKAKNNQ
(§2) EMSAs with the recombinant murine YY1 were performed in a similar way as those with the NE. DNA-binding reactions (20 μl) contained 10 mM HEPES-KOH pH 7.5, 12 mM Tris-HCl pH 7.4, 50 mM NaCl, 50 mM KCl, 5 mM MgCl₂, 0.1 mM ZnCl₂, 0.01% NP-40, 5% glycerol, 500 ng poly(dI-dC), 0.5 mM DTT, and recombinant murine YY1. […]
(In general: Mobility shift assays separate free from complexed probe on a gel.)

Data set [2] deals with T2, YY1 (full length) (Mus musculus, UniProt Q00899 Q00899:1-414). The experiment in a line: EMSA; higher affinity than for RNA; 0.1 mM ZnCl2, 5 mM MgCl2; binding curve only in FIG. 7B. The note with it: tags: N-terminal His6; label: 32P. On the procedure: (§3) 5 nM of radioactively labeled 30-bp DNA probe derived from the promoter region of Arid1a gene containing a consensus YY1 binding motif ([…]; SEQ ID NO: 4) was incubated with increasing concentrations of recombinant murine YY1 protein. Right panel: EMSA of YY1-RNA complexes at different concentrations of recombinant YY1. 5 nM of radioactively labeled 30-nt RNA probe derived from the same region of the Arid1a gene was incubated with increasing concentrations of recombinant YY1 protein.
T2 sequence (Q00899 whole entry, one chain of several): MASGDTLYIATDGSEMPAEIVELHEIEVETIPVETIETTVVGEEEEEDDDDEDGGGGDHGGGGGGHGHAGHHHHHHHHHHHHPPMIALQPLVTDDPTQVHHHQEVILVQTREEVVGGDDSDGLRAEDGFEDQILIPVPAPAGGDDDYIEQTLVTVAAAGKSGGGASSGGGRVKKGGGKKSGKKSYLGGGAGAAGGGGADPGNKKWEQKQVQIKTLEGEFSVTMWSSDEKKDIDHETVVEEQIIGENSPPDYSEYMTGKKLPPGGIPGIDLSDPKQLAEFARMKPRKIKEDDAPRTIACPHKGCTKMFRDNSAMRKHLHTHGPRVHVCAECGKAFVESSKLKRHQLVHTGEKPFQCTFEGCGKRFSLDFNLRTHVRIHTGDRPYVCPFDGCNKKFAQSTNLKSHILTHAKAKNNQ
(§4) EMSAs with the recombinant murine YY1 were performed in a similar way as those with the NE. DNA-binding reactions (20 μl) contained 10 mM HEPES-KOH pH 7.5, 12 mM Tris-HCl pH 7.4, 50 mM NaCl, 50 mM KCl, 5 mM MgCl₂, 0.1 mM ZnCl₂, 0.01% NP-40, 5% glycerol, 500 ng poly(dI-dC), 0.5 mM DTT, and recombinant murine YY1. RNA-binding reactions (20 μl) contained 10 mM HEPES-KOH pH 7.5, 12 mM Tris-HCl pH 7.4, 50 mM NaCl, 50 mM KCl, 5 mM MgCl₂, 0.1 mM ZnCl₂, 0.01% NP-40, 5% glycerol, 10 U SUPERase In RNase inhibitor (Life Technologies), 0.5 mM DTT, and recombinant murine YY1.

Data set [3] addresses T3, OCT4 (Homo sapiens, UniProt Q01860 Q01860:1-360). As to the kind of experiment: EMSA; 250 nM OCT4. The following applies: tags: Abcam ab134876; label: 32P. On the procedure: (§5) The x-axis indicates distance from the TSS in kilobases. The y-axis indicates average density of uniquely mapped reads per genomic bin. […] A radioactively labeled 40-bp DNA probe containing OCT4 consensus binding motif derived from the enhancer of Lefty1 gene was incubated with 250 nM of the recombinant human OCT4 (Abcam, # ab134876). In competition EMSA, 100-fold molar excess of cold competitor DNA containing the OCT4 motif (Lefty1 DNA comp), cold DNA competitor, in which bases adjacent the OCT4 motif were randomly substituted (mut Lefty1 DNA comp), cold DNA competitor lacking the OCT4 motif (Arid1a DNA comp), or cold RNA competitor (Arid1a RNA comp) was pre-incubated with the recombinant OCT4 before the radioactively labeled DNA probe was added to the binding reaction. The arrows indicate free probe and probe bound by OCT4.

In data set [4] the target is T3, OCT4. The experiment in a line: EMSA; legend: OCT4 does not bind RNA in vitro. The following applies: tags: Abcam ab134876; label: 32P. On the procedure: as §5
In data set [5] the target is T1, YY1 C-terminal region (zinc fingers). The experiment in a line: EMSA; zinc-finger region does not bind RNA. The following applies: label: 32P. On the procedure: as §1, §2
Data set [6] has as its target YY1 N-terminal region (Mus musculus, UniProt Q00899 Q00899:1-277). The experiment in a line: EMSA; N-terminal region binds RNA. The note with it: label: 32P. On the procedure:
as §1, §2

The target in data set [7] is T2, YY1 (full length). The experiment in a line: EMSA; weaker than DNA; 0.1 mM ZnCl2, 5 mM MgCl2. The note with it: tags: N-terminal His6; label: 32P. On the procedure:
as §3, §4

Data set [8] has as its target T2, YY1 (full length). As to the kind of experiment: EMSA; 240 nM YY1 in FIG. 9C. The following applies: tags: N-terminal His6; label: 32P. On the procedure:
A radioactively labeled 30-bp DNA probe containing YY1 consensus binding motif derived from the promoter region of Arid1a gene was incubated with 80 nM of the recombinant murine YY1. For supershift assay, 0.5 μl of YY1 antibodies (# sc-7341) was added to the DNA probe pre-incubated with the recombinant protein. In competition EMSA, 100-fold molar excess of cold competitor DNA containing YY1 motif (Spec comp) or lacking YY1 motif (Nspec comp) was pre-incubated with the recombinant YY1 before the radioactively labeled DNA probe was added to the binding reaction. The arrows indicate free probe, probe bound by YY1, probe bound by YY1 fragment, and supershifted probe. […] Radioactively labeled 30-bp DNA probe containing YY1 consensus binding motif derived from the promoter region of Rpl30 gene was incubated with 240 nM of the recombinant murine YY1. In competition EMSA, 100-fold molar excess of cold competitor RNA derived from the promoter region of Arid1a gene was pre-incubated with the recombinant murine YY1 before the radioactively labeled DNA probe was added to the binding reaction. The arrows indicate free probe and probe bound by YY1;
EMSAs with the recombinant murine YY1 were performed in a similar way as those with the NE. […]

For data set [9], the target named is T2, YY1 (full length). As to the kind of experiment: EMSA; tethered RNA outcompetes DNA with untethered RNA; IC50 values only in figure. The following applies: tags: N-terminal His6; label: 32P (probe 2); 30-bp DNA duplex with 30-nt RNA overhang at each 3' end.
Data set [10] concerns the target T2, YY1 (full length). As to the kind of experiment: competition; described as RNA incompatible with YY1 binding in vitro. The note with it: tags: N-terminal His6. On the procedure:
A radioactively labeled 30-nt RNA probe containing sequence derived from the promoter region of Arid1a gene shown in blue above the image or the complementary sequence shown in pink was incubated with 400 nM of the recombinant murine YY1. The arrows indicate free probe and probe bound by YY1. […] Radioactively labeled 30-nt RNA probe derived from the promoter region of Arid1a gene was incubated with 400 nM of recombinant murine YY1. Sequence of the probe is shown above the image in blue. In competition EMSA, 100-fold molar excess of cold competitor RNA with the same sequence as the radiolabeled RNA (Arid1a RNA A), complementary sequence (Arid1a RNA 1), or a different sequence (Arid1a RNA B) was pre-incubated with the recombinant YY1 before the probe was added to the binding reaction. The arrows indicate free probe and probe bound by YY1. Asterisk indicates the position of double-stranded RNA formed when single-stranded cold RNA was incubated with the complementary labelled RNA probe. […] Radioactively labeled 30-nt RNA probe derived from the promoter region of Arid1a gene was incubated with 400 nM of recombinant murine YY1. Sequence of the probe and competitor RNA are shown above the image. For supershift assay, 0.5 μl of YY1 antibodies (# sc-7341) was added to the RNA probe. […]

T3 sequence (Q01860 whole entry, one chain of several): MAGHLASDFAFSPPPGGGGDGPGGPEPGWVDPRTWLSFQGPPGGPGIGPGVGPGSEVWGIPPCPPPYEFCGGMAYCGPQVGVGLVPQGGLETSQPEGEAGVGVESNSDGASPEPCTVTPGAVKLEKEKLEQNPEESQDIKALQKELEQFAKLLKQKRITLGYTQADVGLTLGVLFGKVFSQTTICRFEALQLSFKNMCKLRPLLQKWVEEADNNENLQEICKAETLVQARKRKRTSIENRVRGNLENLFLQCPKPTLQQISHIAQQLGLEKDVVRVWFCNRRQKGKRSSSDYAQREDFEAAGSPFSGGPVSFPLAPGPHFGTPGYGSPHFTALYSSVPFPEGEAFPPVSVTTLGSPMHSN
Sequence of YY1 N-terminal region (Q00899 1-277, one chain of several): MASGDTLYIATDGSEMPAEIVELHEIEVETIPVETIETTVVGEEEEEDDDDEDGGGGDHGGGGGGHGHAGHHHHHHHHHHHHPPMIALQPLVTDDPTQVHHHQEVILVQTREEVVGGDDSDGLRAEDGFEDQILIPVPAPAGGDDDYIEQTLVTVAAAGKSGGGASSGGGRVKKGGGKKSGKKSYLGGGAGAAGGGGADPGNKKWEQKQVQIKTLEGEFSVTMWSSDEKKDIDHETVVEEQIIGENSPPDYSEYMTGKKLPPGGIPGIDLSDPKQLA

B1: Arid1a promoter DNA with YY1 motif (dsDNA)
DNA 1: CTCTTCTCTCTTAAAATGGCTGCCTGTCTG
DNA 2: CAGACAGGCAGCCATTTTAAGAGAGAAGAG
Take B1: the binding result in data set [1] and in data set [2] was “binds” throughout.

B2: Lefty1 enhancer DNA (dsDNA)
DNA 1: GGTGGGAGGGAGACTGCCCTTTGTCATGTAGAAGGAGCTT
DNA 2: AAGCTCCTTCTACATGACAAAGGGCAGTCTCCCTCCCACC
Regarding B2, in data set [3], the binding result is listed as “binds”.
Regarding CUCUUCUCUCUUAAAAUGGCUGCCUGUCUG (ssRNA) [Arid1a promoter RNA A], the binding result was “no binding” in data set [4], “no binding” in [5], “binds” in data set [6] and “binds” in data set [7].

B3: Rpl30 promoter DNA with YY1 motif (dsDNA)
DNA 1: TCGCTCCCCGGCCATCTTGGCGGCTGGTGT
DNA 2: ACACCAGCCGCCAAGATGGCCGGGGAGCGA
B3: the binding result in data set [8] was “binds”.

B4: Rpl30 DNA with tethered Arid1a RNA (mixed)
mixed 1: TCGCTCCCCGGCCATCTTGGCGGCTGGTGTCUCUUCUCUCUUAAAAUGGCUGCCUGUCUG
mixed 2: ACACCAGCCGCCAAGATGGCCGGGGAGCGACUCUUCUCUCUUAAAAUGGCUGCCUGUCUG
On to B4, for which the binding result in data set [9] is listed as “binds”.
Regarding CCCGCCUCCCCAGGCCUACGCGCUGAGCUC (ssRNA) [Arid1a promoter RNA B], in data set [10], the binding result was “no binding”.

Source of the values: patent US20190062752, “Transcription Factor Trapping by RNA in Gene Regulatory Elements” (Whitehead Institute for Biomedical Research, published 2019).
